In patent publication US20160200782A1 (MOERAE MATRIX, published 2016):

T1: Ret(h) (human, UniProt P07949 658-1114, limits assumed)
T1 sequence (looked up): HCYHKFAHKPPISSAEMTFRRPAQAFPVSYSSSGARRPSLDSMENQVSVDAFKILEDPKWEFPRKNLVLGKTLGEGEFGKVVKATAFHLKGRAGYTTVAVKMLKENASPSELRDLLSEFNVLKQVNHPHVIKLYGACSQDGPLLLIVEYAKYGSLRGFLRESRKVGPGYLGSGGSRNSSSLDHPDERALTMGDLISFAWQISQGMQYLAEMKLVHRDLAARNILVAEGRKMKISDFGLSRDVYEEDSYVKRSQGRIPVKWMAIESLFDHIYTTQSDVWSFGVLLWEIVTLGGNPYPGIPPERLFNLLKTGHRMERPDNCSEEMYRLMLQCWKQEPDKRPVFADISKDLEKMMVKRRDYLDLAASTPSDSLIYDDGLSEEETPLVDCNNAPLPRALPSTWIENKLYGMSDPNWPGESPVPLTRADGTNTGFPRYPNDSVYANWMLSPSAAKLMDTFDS

T2: SGK2(h) (human, UniProt Q9HBY8 1-367, limits assumed)
T2 sequence (looked up): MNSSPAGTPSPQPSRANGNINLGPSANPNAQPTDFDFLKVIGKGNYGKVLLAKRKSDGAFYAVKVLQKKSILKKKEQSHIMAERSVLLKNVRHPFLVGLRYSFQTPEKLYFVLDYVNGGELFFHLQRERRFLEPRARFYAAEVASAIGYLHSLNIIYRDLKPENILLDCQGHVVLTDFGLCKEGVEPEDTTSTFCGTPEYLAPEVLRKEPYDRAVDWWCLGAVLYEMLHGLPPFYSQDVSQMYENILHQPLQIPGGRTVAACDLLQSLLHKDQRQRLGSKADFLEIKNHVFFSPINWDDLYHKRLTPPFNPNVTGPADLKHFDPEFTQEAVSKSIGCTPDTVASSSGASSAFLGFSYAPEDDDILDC

T3: CaMKIV(h) (human, UniProt Q16566 1-473, limits assumed)
T3 sequence (looked up): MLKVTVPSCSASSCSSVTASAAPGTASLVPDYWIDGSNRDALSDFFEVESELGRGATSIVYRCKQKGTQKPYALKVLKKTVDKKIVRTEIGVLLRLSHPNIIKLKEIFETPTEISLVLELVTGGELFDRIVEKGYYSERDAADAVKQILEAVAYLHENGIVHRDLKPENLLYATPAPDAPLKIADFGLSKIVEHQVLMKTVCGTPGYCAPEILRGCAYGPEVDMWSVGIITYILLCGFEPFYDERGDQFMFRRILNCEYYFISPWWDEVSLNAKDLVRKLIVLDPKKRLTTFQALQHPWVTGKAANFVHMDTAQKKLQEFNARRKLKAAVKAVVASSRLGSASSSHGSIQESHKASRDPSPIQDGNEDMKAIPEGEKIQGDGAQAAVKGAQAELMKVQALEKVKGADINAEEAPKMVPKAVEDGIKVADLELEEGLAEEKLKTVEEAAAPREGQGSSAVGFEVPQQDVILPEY

T4: DMPK(h) (human, UniProt Q09013 1-629, limits assumed)
T4 sequence (looked up): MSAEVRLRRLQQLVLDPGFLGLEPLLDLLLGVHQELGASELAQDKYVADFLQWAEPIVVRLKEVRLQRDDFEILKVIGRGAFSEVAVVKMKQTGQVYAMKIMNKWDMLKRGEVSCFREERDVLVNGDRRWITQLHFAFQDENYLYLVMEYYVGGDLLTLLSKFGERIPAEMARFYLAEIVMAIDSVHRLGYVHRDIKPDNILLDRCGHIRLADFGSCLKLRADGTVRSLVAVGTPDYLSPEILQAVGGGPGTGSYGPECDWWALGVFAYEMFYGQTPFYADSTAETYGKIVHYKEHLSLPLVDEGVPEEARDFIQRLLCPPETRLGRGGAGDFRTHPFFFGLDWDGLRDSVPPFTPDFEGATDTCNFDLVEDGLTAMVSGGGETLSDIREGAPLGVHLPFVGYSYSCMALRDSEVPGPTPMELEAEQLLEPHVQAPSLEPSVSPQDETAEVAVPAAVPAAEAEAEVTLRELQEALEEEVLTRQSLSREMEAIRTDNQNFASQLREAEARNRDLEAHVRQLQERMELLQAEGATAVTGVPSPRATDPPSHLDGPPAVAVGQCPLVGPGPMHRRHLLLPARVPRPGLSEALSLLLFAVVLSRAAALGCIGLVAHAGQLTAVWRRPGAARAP

T5: EphB1(h) (human, UniProt P54762 564-984, limits assumed)
T5 sequence (looked up): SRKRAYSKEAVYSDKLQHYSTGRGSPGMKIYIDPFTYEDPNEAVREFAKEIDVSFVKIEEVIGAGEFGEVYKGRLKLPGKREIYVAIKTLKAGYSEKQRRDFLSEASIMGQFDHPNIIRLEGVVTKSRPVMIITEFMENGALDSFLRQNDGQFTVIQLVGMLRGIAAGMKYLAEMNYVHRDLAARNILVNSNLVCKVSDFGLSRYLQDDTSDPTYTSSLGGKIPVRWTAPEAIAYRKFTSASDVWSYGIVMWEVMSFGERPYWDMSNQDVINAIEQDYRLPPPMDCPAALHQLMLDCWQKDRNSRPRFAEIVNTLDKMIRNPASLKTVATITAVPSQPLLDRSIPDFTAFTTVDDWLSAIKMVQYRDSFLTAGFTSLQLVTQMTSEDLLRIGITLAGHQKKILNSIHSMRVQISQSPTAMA


Assays:
Assay in all cases: cell-based or functional assay
Hck(h) activated = Hck(h) activated (human, UniProt P08631 251-518, limits assumed)
Met(Y1248C)(h) = Met(Y1248C)(h) (human, UniProt P08581-2 974-1408, limits assumed)
Ret(h) = biological target: T1, Ret(h)
SGK2(h) = biological target: T2, SGK2(h)
CaMKIV(h) = biological target: T3, CaMKIV(h)
DMPK(h) = biological target: T4, DMPK(h)
EphB1(h) = biological target: T5, EphB1(h)
Further: test concentration or dose not given here.

Chain of Hck(h) activated (P08631 251-518 limits assumed): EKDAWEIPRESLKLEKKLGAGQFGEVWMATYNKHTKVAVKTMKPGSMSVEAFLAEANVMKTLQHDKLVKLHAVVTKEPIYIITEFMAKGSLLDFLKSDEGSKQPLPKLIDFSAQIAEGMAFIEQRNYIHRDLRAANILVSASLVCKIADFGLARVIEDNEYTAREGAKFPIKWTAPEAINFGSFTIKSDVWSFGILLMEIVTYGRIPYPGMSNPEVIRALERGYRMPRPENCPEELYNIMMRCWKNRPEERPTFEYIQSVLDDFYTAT

Binder	% activity (Hck(h) activated) [%]	% activity (Met(Y1248C)(h)) [%]	% activity (Ret(h)) [%]	% activity (SGK2(h)) [%]	% activity (CaMKIV(h)) [%]	% activity (DMPK(h)) [%]	% activity (EphB1(h)) [%]
KAFAKLAARLYRKALARQLGVAA [MMI-0400]	81	36	145	98	18	54	58
FAKLAARLYRKALARQLGVAA [MMI-0300]	82	84	140	56	17	59	44
